Test results published in US20240254223A1 (NOVIMMUNE, published 2024).

How the values were obtained:
[1] = molecular target: T1, high affinity trimeric IL-2R (IL-2Rα, IL-2Rβ and IL-2Rγ) on HEK-Blue IL-2 cells (UniProt P01589 22-272; P14784 27-551; P31785 23-369); assay: cell-based or functional assay
T1 sequence (looked up) 1: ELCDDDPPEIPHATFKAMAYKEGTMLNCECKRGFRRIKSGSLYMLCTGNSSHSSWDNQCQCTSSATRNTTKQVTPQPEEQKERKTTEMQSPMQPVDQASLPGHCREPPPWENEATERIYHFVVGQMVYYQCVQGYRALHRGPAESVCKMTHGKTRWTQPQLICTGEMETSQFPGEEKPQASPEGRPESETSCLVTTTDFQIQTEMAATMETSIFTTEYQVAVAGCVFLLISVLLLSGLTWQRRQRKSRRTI
T1 sequence (looked up) 2: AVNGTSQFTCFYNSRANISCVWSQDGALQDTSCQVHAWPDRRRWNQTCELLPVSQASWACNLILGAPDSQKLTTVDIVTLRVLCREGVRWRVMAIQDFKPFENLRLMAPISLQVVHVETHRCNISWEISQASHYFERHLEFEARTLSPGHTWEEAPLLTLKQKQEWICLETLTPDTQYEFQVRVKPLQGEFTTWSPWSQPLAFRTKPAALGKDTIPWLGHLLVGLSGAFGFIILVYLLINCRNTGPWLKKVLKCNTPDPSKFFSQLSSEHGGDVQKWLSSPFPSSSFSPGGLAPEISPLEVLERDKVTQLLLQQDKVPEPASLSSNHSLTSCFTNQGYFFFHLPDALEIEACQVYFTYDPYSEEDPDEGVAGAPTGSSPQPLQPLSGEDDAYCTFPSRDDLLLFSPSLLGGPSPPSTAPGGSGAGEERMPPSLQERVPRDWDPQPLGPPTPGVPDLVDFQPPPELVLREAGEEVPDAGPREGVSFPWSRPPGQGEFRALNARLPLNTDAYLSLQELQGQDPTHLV
T1 sequence (looked up) 3: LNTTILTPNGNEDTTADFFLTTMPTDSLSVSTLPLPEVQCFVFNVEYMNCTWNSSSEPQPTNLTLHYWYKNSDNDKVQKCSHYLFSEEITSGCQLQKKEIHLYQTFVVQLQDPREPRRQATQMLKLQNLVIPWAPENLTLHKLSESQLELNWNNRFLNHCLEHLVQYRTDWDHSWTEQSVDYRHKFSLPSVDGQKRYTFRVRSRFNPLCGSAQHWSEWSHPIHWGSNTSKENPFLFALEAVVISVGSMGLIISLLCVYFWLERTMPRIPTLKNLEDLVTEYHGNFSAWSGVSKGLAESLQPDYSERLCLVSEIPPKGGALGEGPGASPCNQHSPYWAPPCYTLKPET

[2] = molecular target: T2, low-moderate affinity dimeric IL-2R (IL-2Rβ and IL-2Rγ) on HEK-Blue CD122/CD132 cells (UniProt P14784 27-551; P31785 23-369, limits assumed); assay: cell-based or functional assay
T2 sequence (looked up) 1: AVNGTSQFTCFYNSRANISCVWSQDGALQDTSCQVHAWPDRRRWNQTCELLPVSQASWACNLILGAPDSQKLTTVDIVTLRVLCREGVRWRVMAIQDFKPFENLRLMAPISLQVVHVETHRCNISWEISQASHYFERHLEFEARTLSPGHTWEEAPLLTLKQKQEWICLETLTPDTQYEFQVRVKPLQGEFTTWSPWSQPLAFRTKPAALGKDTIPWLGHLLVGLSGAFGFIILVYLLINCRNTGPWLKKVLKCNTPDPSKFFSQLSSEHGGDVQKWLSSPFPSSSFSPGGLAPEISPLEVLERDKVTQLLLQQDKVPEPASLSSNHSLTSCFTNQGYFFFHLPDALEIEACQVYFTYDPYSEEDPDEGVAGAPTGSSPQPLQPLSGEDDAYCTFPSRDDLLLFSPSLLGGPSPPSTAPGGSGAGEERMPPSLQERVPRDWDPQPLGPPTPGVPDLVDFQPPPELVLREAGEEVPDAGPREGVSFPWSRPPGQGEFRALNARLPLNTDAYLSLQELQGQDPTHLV
T2 sequence (looked up) 2: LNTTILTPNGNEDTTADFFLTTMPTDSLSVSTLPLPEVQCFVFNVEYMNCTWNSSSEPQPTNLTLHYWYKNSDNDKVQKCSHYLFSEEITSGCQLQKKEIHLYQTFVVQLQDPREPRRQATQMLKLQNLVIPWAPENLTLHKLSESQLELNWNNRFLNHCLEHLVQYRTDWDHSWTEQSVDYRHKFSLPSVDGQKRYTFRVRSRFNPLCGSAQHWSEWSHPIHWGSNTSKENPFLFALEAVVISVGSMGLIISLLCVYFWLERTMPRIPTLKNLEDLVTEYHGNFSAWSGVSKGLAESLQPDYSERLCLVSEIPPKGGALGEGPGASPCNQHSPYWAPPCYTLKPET

[3] = molecular target: T3, CD47 at the surface of Peak cells (human, UniProt Q08722 19-323); assay: flow cytometry, Peak cells, before cleavage
T3 construct: whole, on cells; also called cell surface CD47
Description: (§1) Binding activity of antibody-cytokine/receptor fusions before and after cleavage was also evaluated by flow cytometry. Peak cells derived from HEK 293 which are human cells expressing CD47 were used to evaluate masking efficacy and binding recovery to CD47 by flow cytometry. Peak cells were diluted in cold FACS buffer (PBS, 2% BSA) to 1.2×10⁶ cells/mL. 3×10⁵ cells/well were added in a 96 well V-bottom plate. The plate was then centrifugated for 5 min at 1300 rpm, 4° C. Supernatants were removed and cells were washed twice using FACS buffer. A serial dilution of antibody-cytokine/receptor fusions previously digested with MMP-9 or not digested as described above was prepared in FACS buffer. An irrelevant antibody was included. Then, 150 μL of each diluted antibody were added in corresponding well and incubated for 30 min at 4° C. Cells were washed twice with FACS buffer and 100 μL of a mouse anti human Fc-PE conjugated secondary antibody were added and the plate was incubated for 20 min at 4° C. Cells were then washed twice with FACS buffer. Finally, 150 μL of SYTOX blue dead cell stain (ThermoFisher) diluted to 1/5000 in FACS buffer were added before detection by flow cytometry with Cytoflex (Beckman Coulter). Acquisition was performed with 10000 events for each well. Data were analyzed by FlowJo software.

[4] = molecular target: T4, His-tagged human CD47 (human, UniProt Q08722 19-139, limits assumed); assay: BLI, His-CD47 on HIS1K sensor, antibody 15 µg/mL
T4 construct: loaded on HIS1K biosensors at 2.5 µg/mL; also called target antigen; not shown: His tag
Description: The capacity of the masking domains to inhibit binding activity of the antibody was evaluated by Bio-Layer Interferometry (BLI). […] Binding experiments were performed to evaluate the masking efficiency and the binding recovery after cleavage of the masking domains. BLI was performed on an Octet RED96 system (Sartorius). His-tagged human CD47 was diluted at 2.5 μg/mL in Kinetic Buffer (KB) (Sartorius) and loaded on HIS1K biosensors (anti-His tag antibody biosensors, Sartorius) for 300 seconds. Loaded biosensors were dipped into antibodies diluted at 15 μg/mL in KB for 300 seconds to monitor association. Then, biosensors were transferred in KB for dissociation for 60 seconds. Binding profiles were then analyzed with ForteBio Data Analysis software.

[5] = molecular target: T3, CD47 at the surface of Peak cells; assay: flow cytometry, Peak cells; EC50 before / EC50 after cleavage
Description: as §1

B1: pNOVI V2K K91_IL-2Rα CM1_VKCK_IL-2_CM1_VHCH (antibody, human IgG1, kappa)
light: ELCDDDPPEIPHATFKAMAYKEGTMLNCECKRGFRRIKSGSLYMLCTGNSSHSSWDNQCQCTSSATRNTTKQVTPQPEEQKERKTTEMQSPMQPVDQASLPGHCREPPPWENEATERIYHFVVGQMVYYQCVQGYRALHRGPAESVCKMTHGKTRWTQPQLICTGEMETSQFPGEEKPQASPEGRPESETSCLVTTTDFQIQTEMAATMETSIFTTEGGGGSVHMPLGFLGPGGSDIQMTQSPSSLSASVGDRVTITCNVDQVIANWLNWYQQKPGKAPKLLIYAASSLQSGVPSRFSGSGSGTDFTLTISSLQPEDFATYYCQQMHPRAPKQFGQGTKVEIKRTVAAPSVFIFPPSDEQLKSGTASVVCLLNNFYPREAKVQWKVDNALQSGNSQESVTEQDSKDSTYSLSSTLTLSKADYEKHKVYACEVTHQGLSSPVTKSFNRGEC
heavy: not shown
notes: masked K91 fusion, uncleaved; also called n690; construct No 690
[1]
  EC50 before cleavage IL-2, HEK Blue IL-2 αβγ reporter assay: 0.07 nM
  EC50 ratio (BC/AC), HEK Blue IL-2 αβγ reporter assay: 1
[2]
  EC50 before cleavage IL-2, HEK Blue IL-2 βγ reporter assay: 0.12 nM
  EC50 ratio (BC/AC), HEK Blue IL-2 βγ reporter assay: 4
[3]
  EC50: 8.7 nM
[4]
  Binding before cleavage (BLI): 1.2 nm
[5]
  Binding recovery (BC/AC): 20
